Patent US20090285813A1
Residue numbers refer to the chain shown, from its start. Values belong to the binder of their own block, whether it stands above or below them.

Target: human CD3 (human) (UniProt P07766)
Experiment: cell-based or functional assay

Sequence of human CD3 (human) (P07766 23-207): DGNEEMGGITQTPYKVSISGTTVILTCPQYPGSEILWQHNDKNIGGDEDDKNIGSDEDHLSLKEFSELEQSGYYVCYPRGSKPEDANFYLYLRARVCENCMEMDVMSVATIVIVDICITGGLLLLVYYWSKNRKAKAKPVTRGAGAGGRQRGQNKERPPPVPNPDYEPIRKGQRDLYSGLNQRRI

Apo-One Apoptosis Assay, 12.5 ng/ml: 885 | Apo-One Apoptosis Assay, 12.5 ng/ml, second block (ratio to Fc null): 1.8 | Apo-One Apoptosis Assay, 25 ng/ml: 1380 | Apo-One Apoptosis Assay, 25 ng/ml, second block (ratio to Fc null): 1.9 | Apo-One Apoptosis Assay, 50 ng/ml: 2040 | Apo-One Apoptosis Assay, 50 ng/ml, second block (ratio to Fc null): 1.7
B2: anti-CD3 HuFR antibody 9 (heavy chain BD20613, light chain BD21138) (antibody, part only; not given: few VH framework 4 residues, V domains shown, part only)
VH, part: QVQLQESGPGLVKPSETLSLTCAVSGYTFTRYTMHWVRQAPGKGLEWVGYINPSRGYTNYNQKFKDRFTISRDDSKNTAYLQMNSLKTEDTAVYYCTRYYDDHYCLDYVTVSSASTKGPS
VL: DIQMTQSPSTLSASVGDRVTITCSASSSVSYMNWYQQKPGKAPKLLIYDTSKLASGVPDRFSGSGSGTDFTLKISRVEAEDVGVYYCQQWSSNPFTFGQGTKVEIKFGQGTKVEIKR

Apo-One Apoptosis Assay, 12.5 ng/ml: 2270 | Apo-One Apoptosis Assay, 12.5 ng/ml, second block (ratio to Fc null): 4.6 | Apo-One Apoptosis Assay, 25 ng/ml: 3480 | Apo-One Apoptosis Assay, 25 ng/ml, second block (ratio to Fc null): 4.8 | Apo-One Apoptosis Assay, 50 ng/ml: 4740 | Apo-One Apoptosis Assay, 50 ng/ml, second block (ratio to Fc null): 4
B4: anti-CD3 HuFR antibody 7 (heavy chain BD20611, light chain BD21136) (antibody, part only; not given: Heavy stretch before framework 4, V domains shown, part only)
VH, part: QVQLVESGAEVKKPGASVKVSCKASGYTFTRYTMHWVRQAPGKGLEWMGYINPSRGYTNYNQKFKDRLTISKDTSKNQVVLTMTNMDPVDTATYYCARYYDDHYCLDYVTVSSASTKGPS
VL: B2 VL with V57I, K73T, V77L, A79P, V82F, G83A

Apo-One Apoptosis Assay, 12.5 ng/ml: 969 | Apo-One Apoptosis Assay, 12.5 ng/ml, second block (ratio to Fc null): 2 | Apo-One Apoptosis Assay, 25 ng/ml: 1630 | Apo-One Apoptosis Assay, 25 ng/ml, second block (ratio to Fc null): 2.2 | Apo-One Apoptosis Assay, 50 ng/ml: 2560 | Apo-One Apoptosis Assay, 50 ng/ml, second block (ratio to Fc null): 2.1
B6: anti-CD3 HuFR antibody 8 (heavy chain BD20611, light chain BD21137) (antibody, part only; not given: few VH framework 4 residues, V domains shown, part only)
VH, part: B4 VH, part
VL: DIQMTQSPSTLSASVGDRVTITCSASSSVSYMNWYQQKPGQPPKLLIYDTSKLASGVPSRFSGSGSGTDFTFTISSLQPEDIATYYCQQWSSNPFTFGQGTKVEIKFGQGTKVEIKR

Apo-One Apoptosis Assay, 12.5 ng/ml: 1280 | Apo-One Apoptosis Assay, 12.5 ng/ml, second block (ratio to Fc null): 2.6 | Apo-One Apoptosis Assay, 25 ng/ml: 2220 | Apo-One Apoptosis Assay, 25 ng/ml, second block (ratio to Fc null): 3.1 | Apo-One Apoptosis Assay, 50 ng/ml: 3500 | Apo-One Apoptosis Assay, 50 ng/ml, second block (ratio to Fc null): 2.9
B8: anti-CD3 HuFR antibody 6 (heavy chain BD20611, light chain BD21135) (antibody, part only; not given: Heavy stretch before framework 4, V domains shown, part only)
VH, part: B4 VH, part
VL: EIVMTQSPATLSVSPGERATLSCSASSSVSYMNWYQQKPGQAPRLLIYDTSKLASGVPDRFSGSGSGTDFTLTISSLQAEDVAVYYCQQWSSNPFTFGQGTKVEIKFGQGTKVEIKR

Apo-One Apoptosis Assay, 12.5 ng/ml: 1160 | Apo-One Apoptosis Assay, 12.5 ng/ml, second block (ratio to Fc null): 2.4 | Apo-One Apoptosis Assay, 25 ng/ml: 1660 | Apo-One Apoptosis Assay, 25 ng/ml, second block (ratio to Fc null): 2.3 | Apo-One Apoptosis Assay, 50 ng/ml: 2160 | Apo-One Apoptosis Assay, 50 ng/ml, second block (ratio to Fc null): 1.8
B9: anti-CD3 HuFR antibody 5 (heavy chain BD20611, light chain BD21134) (antibody, part only; not given: Heavy stretch before framework 4, V domains shown, part only)
VH, part: B4 VH, part
VL: B8 VL with A42P, R44K, D59S, D69E, A79P, E80D, V82F, V84T

The remaining lines, values behind:

B1: anti-CD3 HuFR antibody 1 (heavy chain BD20610, light chain BD21130) (antibody, part only; not given: Heavy stretch before framework 4, V domains shown, part only)
VH, part: QVQLVESGAEVKKPGASVKVSCKASGYTFTRYTMHWVRQAPGKGLEWMGYINPSRGYTNYNQKFKDRVTISVDTSKNQFSLKLSSVTAADTAVYYCARYYDDHYCLDYVTVSSASTKGPS
VL: B2 VL with T10S, K41Q, A42P
Apo-One Apoptosis Assay, 12.5 ng/ml: 797 | Apo-One Apoptosis Assay, 12.5 ng/ml, second block (ratio to Fc null): 1.6 | Apo-One Apoptosis Assay, 25 ng/ml: 1220 | Apo-One Apoptosis Assay, 25 ng/ml, second block (ratio to Fc null): 1.7 | Apo-One Apoptosis Assay, 50 ng/ml: 1750 | Apo-One Apoptosis Assay, 50 ng/ml, second block (ratio to Fc null): 1.5

B3: anti-CD3 HuFR antibody 2 (heavy chain BD20613, light chain BD21131) (antibody, part only; not given: few VH framework 4 residues, V domains shown, part only)
VH, part: B2 VH, part
VL: B2 VL with K41Q, K44R
Apo-One Apoptosis Assay, 12.5 ng/ml: 854 | Apo-One Apoptosis Assay, 12.5 ng/ml, second block (ratio to Fc null): 1.7 | Apo-One Apoptosis Assay, 25 ng/ml: 1440 | Apo-One Apoptosis Assay, 25 ng/ml, second block (ratio to Fc null): 2 | Apo-One Apoptosis Assay, 50 ng/ml: 2160 | Apo-One Apoptosis Assay, 50 ng/ml, second block (ratio to Fc null): 1.8

B5: anti-CD3 HuFR antibody 3 (heavy chain BD20611, light chain BD21132) (antibody, part only; not given: Heavy stretch before framework 4, V domains shown, part only)
VH, part: B4 VH, part
VL: B8 VL with M4L, V13L, Q41K, R44K, D59S, D69E, A79P, E80D, V82F, V84T
Apo-One Apoptosis Assay, 12.5 ng/ml: 649 | Apo-One Apoptosis Assay, 12.5 ng/ml, second block (ratio to Fc null): 1.3 | Apo-One Apoptosis Assay, 25 ng/ml: 854 | Apo-One Apoptosis Assay, 25 ng/ml, second block (ratio to Fc null): 1.2 | Apo-One Apoptosis Assay, 50 ng/ml: 1130 | Apo-One Apoptosis Assay, 50 ng/ml, second block (ratio to Fc null): 1

B7: anti-CD3 HuFR antibody 4 (heavy chain BD20611, light chain BD21133) (antibody, part only; not given: Heavy stretch before framework 4, V domains shown, part only)
VH, part: B4 VH, part
VL: DIVMTQSPLSLPVTPGEPASISCSASSSVSYMNWYQQKPGQPPKLLIYDTSKLASGVPSRFSGSGSGTEFTLTISSLQPDDFATYYCQQWSSNPFTFGQGTKVEIKFGQGTKVEIKR
Apo-One Apoptosis Assay, 12.5 ng/ml: 1390 | Apo-One Apoptosis Assay, 12.5 ng/ml, second block (ratio to Fc null): 2.8 | Apo-One Apoptosis Assay, 25 ng/ml: 2350 | Apo-One Apoptosis Assay, 25 ng/ml, second block (ratio to Fc null): 3.2 | Apo-One Apoptosis Assay, 50 ng/ml: 3300 | Apo-One Apoptosis Assay, 50 ng/ml, second block (ratio to Fc null): 2.8
